How the values were obtained:
Test in all cases: EMSA
[1] = target: H3K4me3 187 bp mononucleosome, P68431; conditions: chain shown with the change;; parent: 7.3 µM
[2] = target: H3K4me3 147 bp mononucleosome, P68431; conditions: chain shown with the change;; parent: 6.9 ± 0.8
[3] = target: unmodified 147 bp mononucleosome, P68431; conditions: chain shown with the change;; parent: ≥ 12.5 ± 1.2

Row | Kd [1] | Kd [2] | Kd [3] | Binder
1 | 1300 nM | 2300 nM | 1800 nM | KDM5C^1–839, P41229-1 D87G (protein) MEPGSDDFLPPPECPVFEPSWAEFRDPLGYIAKIRPIAEKSGICKIRPPADWQPPFAVEVDNFRFTPRIQRLNELEAQTRVKLNYLGQIAKFWEIQGSSLKIPNVERRILDLYSLSKIVVEEGGYEAICKDRRWARVAQRLNYPPGKNIGSLLRSHYERIVYPYEMYQSGANLVQCNTRPFDNEEKDKEYKPHSIPLRQSVQPSKFNSYGRRAKRLQPDPEPTEEDIEKNPELKKLQIYGAGPKMMGLGLMAKDKTLRKKDKEGPECPPTVVVKEELGGDVKVESTSPKTFLESKEELSHSPEPCTKMTMRLRRNHSNAQFIESYVCRMCSRGDEDDKLLLCDGCDDNYHIFCLLPPLPEIPKGVWRCPKCVMAECKRPPEAFGFEQATREYTLQSFGEMADSFKADYFNMPVHMVPTELVEKEFWRLVNSIEEDVTVEYGADIHSKEFGSGFPVSDSKRHLTPEEEEYATSGWNLNVMPVLEQSVLCHINADISGMKVPWLYVGMVFSAFCWHIEDHWSYSINYLHWGEPKTWYGVPSLAAEHLEEVMKKLTPELFDSQPDLLHQLVTLMNPNTLMSHGVPVVRTNQCAGEFVITFPRAYHSGFNQGYNFAEAVNFCTADWLPAGRQCIEHYRRLRRYCVFSHEELICKMAACPEKLDLNLAAAVHKEMFIMVQEERRLRKALLEKGITEAEREAFELLPDDERQCIKCKTTCFLSALACYDCPDGLVCLSHINDLCKCSSSRQYLRYRYTLDELPAMLHKLKVRAESFDTWANKVRVALEVEDGRKRSLEELRALESEARERRFPNSELLQQLKNCLSEAEACVSRALGLVSGQEAG
2 | 1800 nM | 3700 nM | 3100 nM | KDM5C^1–839, P41229-1 A388P (protein) MEPGSDDFLPPPECPVFEPSWAEFRDPLGYIAKIRPIAEKSGICKIRPPADWQPPFAVEVDNFRFTPRIQRLNELEAQTRVKLNYLDQIAKFWEIQGSSLKIPNVERRILDLYSLSKIVVEEGGYEAICKDRRWARVAQRLNYPPGKNIGSLLRSHYERIVYPYEMYQSGANLVQCNTRPFDNEEKDKEYKPHSIPLRQSVQPSKFNSYGRRAKRLQPDPEPTEEDIEKNPELKKLQIYGAGPKMMGLGLMAKDKTLRKKDKEGPECPPTVVVKEELGGDVKVESTSPKTFLESKEELSHSPEPCTKMTMRLRRNHSNAQFIESYVCRMCSRGDEDDKLLLCDGCDDNYHIFCLLPPLPEIPKGVWRCPKCVMAECKRPPEAFGFEQPTREYTLQSFGEMADSFKADYFNMPVHMVPTELVEKEFWRLVNSIEEDVTVEYGADIHSKEFGSGFPVSDSKRHLTPEEEEYATSGWNLNVMPVLEQSVLCHINADISGMKVPWLYVGMVFSAFCWHIEDHWSYSINYLHWGEPKTWYGVPSLAAEHLEEVMKKLTPELFDSQPDLLHQLVTLMNPNTLMSHGVPVVRTNQCAGEFVITFPRAYHSGFNQGYNFAEAVNFCTADWLPAGRQCIEHYRRLRRYCVFSHEELICKMAACPEKLDLNLAAAVHKEMFIMVQEERRLRKALLEKGITEAEREAFELLPDDERQCIKCKTTCFLSALACYDCPDGLVCLSHINDLCKCSSSRQYLRYRYTLDELPAMLHKLKVRAESFDTWANKVRVALEVEDGRKRSLEELRALESEARERRFPNSELLQQLKNCLSEAEACVSRALGLVSGQEAG
